Patent US20210230266A1 (SINGAPORE HEALTH SERVICES PTE, published 2021)
Where a chain is given by its changes, count along the chain named.

B1: YU100-E06 (antibody)
chain: QVQLVESGGGVVQPGRSLRLSCAASGFTFSSYGMHWVRQAPGKGLEWVAVISYDGSNKYYADSVKGRFTISRDNSKNTLYLQMNSLRAEDTAVYYCAKIGATDPLDYWGQGTLVTVSSGSASAPKLEEGEFSEARVQSALTQPASVSGFPEQSITISCTGTSSDVGGYDYVSWYQQHPGKAPKLMIYDVTNRPSGVSNRFSGSKSGNTASLTISGLQPEDEADYYCSSYTSNTTWVFGGGTKLTVLRQPKAAPSVTLFPPSS
B2: YU112-E07 (antibody)
chain: QVQLVQSGGGVVQPGRSLRLSCAASGFTFGSYGMHWVRQAPGKGLEWVAVISYDGSNKYYADSVKGRFTISRDNSKNTLYLQMNSLRAEDTAVYYCAKGSYYFDYWGQGTLVTVSSGSASAPKLEEGEFSEARVEIVMTQSPDSLAVSLGERATINCKSSQSVNSAYLAWYQHKPGQPPRLLIYGASRRVTGVPDRFSGSGSGTDFTLTISSLQPEDFATYYCQQSYSDPRWTFGQGTKVEIK
B3: YU100-G08 (antibody, human IgG1, V domains shown)
VH: QVQLVQSGGGVVQPGRSLRLSCAASGFTFSSYGMHWVRQAPGKGLEWVAVISYDGSNKYYADSVKGRFTISRDNSKNTLYLQMNSLRAEDTAVYYCAKIGATDPLDYWGQGTLVTVSS
VL: QSALTQPRSVSGSPGQSVTLSCTGTSSDVGGYNYVSWYQHYPGKAPKLMIFDVNERSSGVPDRFSGSKSGNTASLTISGLQAEDEADYYCCSYAGRYTWMFGGGTKVTVLG
notes: Light chain shuffled human antibody; Only the variable domains are tied to the clone
B4: YU100-H01 (antibody, human IgG1, V domains shown)
VH: QVQLVQSGGGVVQPGRSLRLSCAASGFTFSSYAMHWVRQAPGKGLEWVAVISYDGSNKYYADSVKGRFTISRDNSKNTLYLQMNSLRAEDTAVYYCARIMGYDYGDYDVVDYWGQGTLVTVSS
VL: B3 VL with L20I, G31A, H40Q, Y41H, F51Y, N54S, S57P, R96S, M100V, V107L
notes: as for B3
B5: 02S (antibody, IgG1, V domains shown)
VH: B3 VH
VL: B3 VL with C91S
notes: C91S variant of the YU100-G08 VL
B6: 02T (antibody, IgG1, V domains shown)
VH: B3 VH
VL: B3 VL with C91T
notes: C91T variant of the YU100-G08 VL
B7: 02G (antibody, IgG1, V domains shown)
VH: B3 VH
VL: B3 VL with C91G
notes: C91G variant of the YU100-G08 VL
B8: YU100-G08_02A (antibody, V domains shown)
VH: B3 VH
VL: B3 VL with C91A
notes: C91A variant of the YU100-G08 VL
B9: 02L (antibody, IgG1, V domains shown)
VH: B3 VH
VL: B3 VL with C91L
notes: C91L variant of the YU100-G08 VL
B10: 02I (antibody, IgG1, V domains shown)
VH: B3 VH
VL: B3 VL with C91I
notes: C91I variant of the YU100-G08 VL
B11: 02Q (antibody, IgG1, V domains shown)
VH: B3 VH
VL: B3 VL with C91Q
notes: C91Q variant of the YU100-G08 VL
B12: 02V (antibody, IgG1, V domains shown)
VH: B3 VH
VL: B3 VL with C91V
notes: C91V variant of the YU100-G08 VL
B13: BSN-8H11 (antibody, IgG2b, V domains shown)
VH: EVQLQQSGPELVKPGASVKIPCKASGYTFTDYNIDWVKQSHGKSLEWIGDINPNYGGTLYNQKFKGKATLTVDKSSSTAYMELRSLTSEDTAVYYCARGELGHWYFDVWGTGTTVTVSS
VL: DIVLTQSPASLAVSLGQRATISCRASKSVSTSDYSYMHWYQQKPGHPPKLLIYLASNLESGVPARFSGSGSGTDFTLNIHPVEEEDAATYFCQHSRDLPPTFGGGTKLEIK
notes: also called A16
B14: 01A (antibody, IgG1, V domains shown)
VH: B4 VH
VL: QSALTQPRSVSGSPGQSVTISCTGTSSDVGAYNYVSWYQQHPGKAPKLMIYDVSERPSGVPDRFSGSKSGNTASLTISGLQAEDEADYYCASYAGSYTWVFGGGTKLTVLG
notes: C91A variant of the YU100-H01 VL
B15: 01T (antibody, IgG1, V domains shown)
VH: B4 VH
VL: B14 VL with A91T
notes: C91T variant of the YU100-H01 VL
B16: 01V (antibody, IgG1, V domains shown)
VH: B4 VH
VL: B14 VL with A91V
notes: C91V variant of the YU100-H01 VL
B17: 01G (antibody, IgG1, V domains shown)
VH: B4 VH
VL: B14 VL with A91G
notes: C91G variant of the YU100-H01 VL
B18: 01Q (antibody, IgG1, V domains shown)
VH: B4 VH
VL: B14 VL with A91Q
notes: C91Q variant of the YU100-H01 VL
B19: 01L (antibody, IgG1, V domains shown)
VH: B4 VH
VL: B14 VL with A91L
notes: C91L variant of the YU100-H01 VL
B20: 01S (antibody, IgG1, V domains shown)
VH: B4 VH
VL: B14 VL with A91S
notes: C91S variant of the YU100-H01 VL
B21: 01I (antibody, IgG1, V domains shown)
VH: B4 VH
VL: B14 VL with A91I
notes: C91I variant of the YU100-H01 VL

Target: T1, Human IL-11 (human, UniProt P20809 22-199)
T1 construct: Recombinant human IL-11 (GenScript Cat. No. Z03108-1) or IL-11 secreted by human cells; the mature form is said to have 178 residues; also called recombinant human IL-11; endogenously produced IL-11
T1 sequence: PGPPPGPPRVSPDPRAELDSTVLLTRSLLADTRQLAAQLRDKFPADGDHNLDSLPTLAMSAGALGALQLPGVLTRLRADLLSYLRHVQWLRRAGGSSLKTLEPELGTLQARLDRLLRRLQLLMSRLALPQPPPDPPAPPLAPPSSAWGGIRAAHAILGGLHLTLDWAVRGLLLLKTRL
Experiment: ELISA
Description: (§1) The soluble scFv were produced by recombinant expression in E. coli, and analysed for their ability to bind to human IL-11 and murine IL-11 by ELISA. Briefly, the respective antigen was coated to wells of an ELISA plate, the cell culture supernatant containing the respective scFv was added at a 1:2 dilution, and binding was detected.

Binder	hIL11 - average signal
B1	0.173
B2	0.71
B3	0.153
B4	0.43

Target: T2, Mouse IL-11 (mouse, UniProt P47873 22-199, limits assumed)
T2 construct: also called murine IL-11; recombinant murine IL-11
T2 sequence (looked up): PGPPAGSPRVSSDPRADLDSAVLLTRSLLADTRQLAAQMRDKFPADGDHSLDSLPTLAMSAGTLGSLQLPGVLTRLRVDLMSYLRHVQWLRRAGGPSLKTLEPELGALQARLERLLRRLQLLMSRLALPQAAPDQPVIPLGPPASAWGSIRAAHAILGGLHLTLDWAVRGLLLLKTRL
Experiment: ELISA
Description: as §1

Binder	mIL11 - average signal
B1	0.309
B2	0.561
B3	0.27
B4	0.283

Target: T1, Human IL-11
Experiment: cell-based or functional assay

Binder	MMP2 production, Experiment 1 (human atrial fibroblasts + TGFB1) [ng/mL]	MMP2 production, Experiment 2 (human atrial fibroblasts + TGFB1) [ng/mL]
B1	54.1	48.2
B2	53.5	49.1
B3	42.3	38
B4	48.3	42.2

Target: T1, Human IL-11
Experiment: ELISA on coated recombinant human IL-11 (100 ng/well), scFv-Fc
Description: The light chain shuffled anti-IL-11 antibodies were analysed to determine the EC50 for binding to human IL-11 by ELISA according to standard methods. Briefly, wells of microtiter plates were coated with recombinant human IL-11 (100 ng/well), scFv-Fc comprising the VH and VL domains of the clones were added in a dilution series and antibody binding was detected using a polyclonal antibody detection system.

Binder	EC50 [µg/mL]
B1	0.024
B2	0.058
B3	0.028
B4	0.053

Target: T1, Human IL-11
Experiment: SPR (BIAcore T200) single cycle kinetics, human IL-11 on CM5 chip, 1:1 model
Description: HEK293 EBNDA cells were transfected with vectors encoding scFv corresponding to YU100-H01, 01A, 01G, 01I, 01L, 01Q, 01S, 01T, 01V, YU100-G08, 02A, 02G, 02I, 02L, 02Q, 02S, 02T or 02V.

Binder	Kd [nM]	koff [s⁻¹]	kon [M⁻¹ s⁻¹]
B3	3.51	0.0013	369000
B5	4.99	0.00639	1.28e+06
B6	35	0.00207	59200
B7	1980	0.0537	27200
B8	4.46	0.00312	699000
B9	4.36	0.00202	463000
B10	2.89	0.00238	825000
B11	5.84	0.00249	426000
B12	10.4	0.00215	207000

Target: T3, FLAG-tagged human IL-11 expressed at the surface of transiently transfected cells (human, UniProt P20809 22-199)
T3 construct: also called IL-11 expressing HEK cells; target cells expressing human IL-11 at their surface; not shown: FLAG tag added to the N-terminus
T3 sequence: T1 sequence
Experiment: flow cytometry, hybridoma supernatant on cells transfected with pB1-IL11-hum.FL

Binder	GMFI
B13	239000

Target: T1, Human IL-11
Experiment: SPR, Single Cycle Kinetics, BIAcore T200; human IL-11 immobilised on CM5 chip, antibody in IgG1 format as analyte, 1:1 model

Binder	Kd [nM]	koff [s⁻¹]	kon [M⁻¹ s⁻¹]
B4	42.3	0.000658	14800
B14	62.6	0.00081	12900
B15	17.1	0.0127	742000
B16	84.7	0.000778	9190
B17	560	0.000986	1760
B18	104	0.000966	9290
B19	33.5	0.000526	15700
B20	107	0.000905	8470
B21	29.2	0.00269	92100

Target: T3, FLAG-tagged human IL-11 expressed at …
Experiment: flow cytometry, hybridoma supernatant on cells transfected with pB1-IL11-hum.FL; relative to the anti-FLAG positive control (100%)

Binder	binding relative to anti-FLAG positive control [%]
B13	190
